Measurements as given in PMC13042984.

Target: RFX5 DBD (Homo sapiens) (UniProt P48382)
Test: EMSA
Conditions: KD values only in figure; hmC/mC CpG; EMSA: 20 mM HEPES, 30 mM KCl, 1 mM EDTA, 1 mM (NH4)2SO4, 0.2% Tween 20, 1 mM DTT, 5 uM dA:dT competitor, 2 nM DNA, 20 min, 21 C (pH not stated); pulldown: 50 mM

Sequence of RFX5 DBD (Homo sapiens) (P48382 75-168): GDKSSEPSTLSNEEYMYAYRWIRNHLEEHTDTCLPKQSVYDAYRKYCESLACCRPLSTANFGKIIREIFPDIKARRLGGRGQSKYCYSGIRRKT

X-box 1 probe hmC/mC was tested, and the binding signal (fold weaker than mC/mC (KD)) was 2.5.
